The text below walks through data of patent publication US20240309340.

Data set [1] concerns the target T1, tsH034' Phi29 DNA polymerase (K143D, sso7d fusion) (Bacillus phage phi29?) (UniProt P03680).
T1 sequence: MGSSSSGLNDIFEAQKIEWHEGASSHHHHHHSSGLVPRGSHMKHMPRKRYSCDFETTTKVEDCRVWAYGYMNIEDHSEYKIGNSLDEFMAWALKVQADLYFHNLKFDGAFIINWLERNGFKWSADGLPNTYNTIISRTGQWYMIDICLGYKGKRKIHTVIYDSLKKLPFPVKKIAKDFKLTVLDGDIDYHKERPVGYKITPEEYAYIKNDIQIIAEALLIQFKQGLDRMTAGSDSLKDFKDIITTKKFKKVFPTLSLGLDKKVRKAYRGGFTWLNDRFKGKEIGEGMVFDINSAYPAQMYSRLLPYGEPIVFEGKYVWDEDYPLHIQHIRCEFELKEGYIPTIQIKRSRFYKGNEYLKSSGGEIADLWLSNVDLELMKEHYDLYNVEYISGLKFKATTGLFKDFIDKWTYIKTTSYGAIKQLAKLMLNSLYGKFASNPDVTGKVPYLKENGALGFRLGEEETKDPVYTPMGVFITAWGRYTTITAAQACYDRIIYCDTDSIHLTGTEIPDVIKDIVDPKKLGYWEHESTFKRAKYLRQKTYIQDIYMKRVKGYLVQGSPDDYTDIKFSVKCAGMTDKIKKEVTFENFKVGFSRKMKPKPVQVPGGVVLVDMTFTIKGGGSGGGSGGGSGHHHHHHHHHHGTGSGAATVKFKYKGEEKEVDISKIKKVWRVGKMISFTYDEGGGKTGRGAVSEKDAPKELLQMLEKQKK
The settings on record: template aligned length, single molecule sequencing.

Data set [2] deals with T2, tsH039' Phi29 DNA polymerase (Y148L, sso7d fusion) (Bacillus phage phi29?) (UniProt P03680).
T2 sequence: T1 sequence with D184K, Y189L
The settings on record: template aligned length, single molecule sequencing.

Data set [3] concerns the target T3, tsH042' Phi29 DNA polymerase (K143S, sso7d fusion) (Bacillus phage phi29?) (UniProt P03680).
T3 sequence: T1 sequence with D184S
The note with it: template aligned length, single molecule sequencing.

In data set [4] the test system is G075 Phi29 DNA polymerase K143D K143D (Bacillus phage phi29?). The data set is described as follows: cleavage_in_vitro. The settings on record: RCA +++.
In data set [5] the test system is G059 Phi29 DNA polymerase E14I E14I (Bacillus phage phi29?). The data set is described as follows: cleavage_in_vitro. The note with it: RCA +++.
Data set [6] deals with H004 Phi29 DNA polymerase Y224K,E239G,V250I,L253A,E375Y,A437G,A484E,E508R,D510K,K512Y,E515Q,D570M (Bacillus phage phi29?). Briefly: cleavage_in_vitro. The note with it: primer hydrolysed in 2 min.
The subject of data set [7] is H019 Phi29 DNA polymerase Y224K,E239G,V250I,L253A,E375A,A437G,A484E,E508R,D510K,K512Y,E515Q,D570M (Bacillus phage phi29?). Briefly: cleavage_in_vitro. The settings on record: RCA ++++.
For data set [8], the system named is H020 Phi29 DNA polymerase Y224K,E239G,V250I,L253A,E375S,A437G,A484E,E508R,D510K,K512Y,E515Q,D570M (Bacillus phage phi29?). The data set is described as follows: cleavage_in_vitro. The settings on record: RCA ++++.
Data set [9] concerns G077 Phi29 DNA polymerase D145A D145A (Bacillus phage phi29?). Briefly: cleavage_in_vitro. The settings on record: RCA +++.
In data set [10] the test system is H022 Phi29 DNA polymerase Y224K,E239G,V250I,L253A,E375Y,K379S,A437G,A484E,E508R,D510K,K512Y,E515Q,D570M (Bacillus phage phi29?). Briefly: cleavage_in_vitro. The note with it: RCA ++++.
For data set [11], the system named is G087 Phi29 DNA polymerase Y148L Y148L (Bacillus phage phi29?). Briefly: cleavage_in_vitro. The note with it: RCA +++.
The test system of data set [12] is H004 Phi29 DNA polymerase Y224K,E239G,V250I,L253A,E375Y,A437G,A484E,E508R,D510K,K512Y,E515Q,D570M (Bacillus phage phi29?). The settings on record: conversion of modified dNTPs; 100 pM primer/template, 300 pM protein, 5 mM Mg(OAc)2, 10 mM DTT, 30 min; Table 5 gives 19.9%.
Data set [13] relates to H034 Phi29 DNA polymerase K143D,Y224K,E239G,V250I,L253A,E375Y,A437G,A484E,E508R,D510K,K512Y,E515Q,D570M (Bacillus phage phi29?). The note with it: conversion of modified dNTPs; 5 mM Mg(OAc)2.
In data set [14] the test system is H019 Phi29 DNA polymerase Y224K,E239G,V250I,L253A,E375A,A437G,A484E,E508R,D510K,K512Y,E515Q,D570M (Bacillus phage phi29?). The settings on record: conversion of modified dNTPs; 5 mM Mg(OAc)2.
Data set [15] relates to H020 Phi29 DNA polymerase Y224K,E239G,V250I,L253A,E375S,A437G,A484E,E508R,D510K,K512Y,E515Q,D570M (Bacillus phage phi29?). The settings on record: conversion of modified dNTPs; 5 mM Mg(OAc)2.
Data set [16] relates to H022 Phi29 DNA polymerase Y224K,E239G,V250I,L253A,E375Y,K379S,A437G,A484E,E508R,D510K,K512Y,E515Q,D570M (Bacillus phage phi29?). The note with it: conversion of modified dNTPs; 5 mM Mg(OAc)2.

Residue numbers refer to the chain shown, from its start. Where two headings read alike, the source gives them in different places.

In the case of “circular DNA template with primer (single molecule sequencing)”, the values for the activity in data set [1], in [2] and in data set [3] were 282 bases, 436 bases and 342 bases, respectively.
“fluorescent-labelled primer (exonuclease substrate)”: the activity in [4] was found to be 37.5%; in data set [5], 52.6%; in data set [6] it was 38%; in [7], 39.1%; in data set [8], 56.5%; in data set [9] it was 68.6%. Also, the activity in data set [10] was 62.2%; in data set [11], 34.5%.
“primer/template (modified dNTP conversion)”: the activity amounted to 48.4% in data set [12]; 5.4% in [13]; 22.2% in data set [14]; 46.2% in data set [15]; 32.5% in data set [16].
